Measured values as given in paper PMC12079263.

Molecular target: Rab11 (1–173, Q70L) with 6 × His, bound to GTP-γ-S (UniProt P62491)
Assay: SPR

Work on “p14^1–69 protein (p14 FAST protein of reptilian reovirus, residues 1-69) reconstituted into bicelles (domain or fragment)” yielded a Kd of 2130 nM.
